# Test results reported in US20140287434.
# Assays:
# [1] = system: Lck peptide substrate (YIYGSFK) attached to the carboxy-terminus of the Itk SH2 domain
# FLAG-tagged Btk full-length enzyme, sequence (Q06187 whole entry): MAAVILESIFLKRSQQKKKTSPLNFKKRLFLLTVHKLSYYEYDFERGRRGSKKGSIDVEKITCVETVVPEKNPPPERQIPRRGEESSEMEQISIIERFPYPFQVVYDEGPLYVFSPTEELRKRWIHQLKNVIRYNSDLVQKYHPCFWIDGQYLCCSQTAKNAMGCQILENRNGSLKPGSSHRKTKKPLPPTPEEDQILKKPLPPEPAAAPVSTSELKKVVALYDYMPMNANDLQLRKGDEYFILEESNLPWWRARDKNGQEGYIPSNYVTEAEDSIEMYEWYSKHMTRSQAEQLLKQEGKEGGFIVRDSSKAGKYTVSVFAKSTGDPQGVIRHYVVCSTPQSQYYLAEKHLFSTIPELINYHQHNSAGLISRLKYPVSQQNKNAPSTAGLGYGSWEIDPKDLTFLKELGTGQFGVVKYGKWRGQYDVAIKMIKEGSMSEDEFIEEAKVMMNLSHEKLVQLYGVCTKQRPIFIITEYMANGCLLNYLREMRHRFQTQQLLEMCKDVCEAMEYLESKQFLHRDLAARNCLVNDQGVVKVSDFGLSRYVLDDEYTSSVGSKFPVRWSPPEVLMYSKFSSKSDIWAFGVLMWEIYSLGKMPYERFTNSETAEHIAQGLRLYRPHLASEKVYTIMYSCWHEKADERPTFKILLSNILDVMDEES
Substance,phosphorylation on Y223 in an in vitro kinase assay (Btk SH3),phosphorylation on Y223 in an in vitro kinase assay (Btk SH3-SH2 (Btk 32)),"phosphorylation by Lck kinase domain (32P, scintillation counting) against the free peptide YIYGSFK [1]"
FLAG-tagged Btk full-length enzyme,are not phosphorylated by the Tec and Btk kinases,"only substrates that contain both the site of phosphorylation (Y180 for Itk, Y187 for Tec, Y223 for Btk, and Y783 for PLCγ1) and the adjacent SH2 domain are phosphorylated by the Tec kinases",–
His-tagged wild type Lck kinase domain,–,–,most efficiently phosphorylated when attached to the carboxy-terminus of the SH2 domain and this tethered substrate is a better substrate by an order of magnitude
